Results on two substances are retold here after IntAct's records for PubMed 15652484.

The assay deals with erp44_mouse Erp44 (UniProt Q9D1Q6).
Chain of erp44_mouse Erp44 (Q9D1Q6 whole entry): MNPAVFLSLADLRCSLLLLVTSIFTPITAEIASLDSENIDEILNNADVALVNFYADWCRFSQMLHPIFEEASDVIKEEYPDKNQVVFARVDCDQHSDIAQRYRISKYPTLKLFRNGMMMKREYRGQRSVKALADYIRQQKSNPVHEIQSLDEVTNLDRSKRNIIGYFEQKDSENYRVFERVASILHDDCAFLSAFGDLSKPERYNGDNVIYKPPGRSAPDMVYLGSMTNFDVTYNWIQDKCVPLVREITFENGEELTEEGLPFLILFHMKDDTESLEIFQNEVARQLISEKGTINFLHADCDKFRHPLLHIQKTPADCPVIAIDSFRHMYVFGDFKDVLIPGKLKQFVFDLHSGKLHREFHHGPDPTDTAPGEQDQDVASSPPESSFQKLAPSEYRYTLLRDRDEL

Chain of Inositol 1,4,5-trisphosphate-gated calcium channel ITPR1 (Mus musculus), P11881 C2496S (P11881 whole entry C2496S): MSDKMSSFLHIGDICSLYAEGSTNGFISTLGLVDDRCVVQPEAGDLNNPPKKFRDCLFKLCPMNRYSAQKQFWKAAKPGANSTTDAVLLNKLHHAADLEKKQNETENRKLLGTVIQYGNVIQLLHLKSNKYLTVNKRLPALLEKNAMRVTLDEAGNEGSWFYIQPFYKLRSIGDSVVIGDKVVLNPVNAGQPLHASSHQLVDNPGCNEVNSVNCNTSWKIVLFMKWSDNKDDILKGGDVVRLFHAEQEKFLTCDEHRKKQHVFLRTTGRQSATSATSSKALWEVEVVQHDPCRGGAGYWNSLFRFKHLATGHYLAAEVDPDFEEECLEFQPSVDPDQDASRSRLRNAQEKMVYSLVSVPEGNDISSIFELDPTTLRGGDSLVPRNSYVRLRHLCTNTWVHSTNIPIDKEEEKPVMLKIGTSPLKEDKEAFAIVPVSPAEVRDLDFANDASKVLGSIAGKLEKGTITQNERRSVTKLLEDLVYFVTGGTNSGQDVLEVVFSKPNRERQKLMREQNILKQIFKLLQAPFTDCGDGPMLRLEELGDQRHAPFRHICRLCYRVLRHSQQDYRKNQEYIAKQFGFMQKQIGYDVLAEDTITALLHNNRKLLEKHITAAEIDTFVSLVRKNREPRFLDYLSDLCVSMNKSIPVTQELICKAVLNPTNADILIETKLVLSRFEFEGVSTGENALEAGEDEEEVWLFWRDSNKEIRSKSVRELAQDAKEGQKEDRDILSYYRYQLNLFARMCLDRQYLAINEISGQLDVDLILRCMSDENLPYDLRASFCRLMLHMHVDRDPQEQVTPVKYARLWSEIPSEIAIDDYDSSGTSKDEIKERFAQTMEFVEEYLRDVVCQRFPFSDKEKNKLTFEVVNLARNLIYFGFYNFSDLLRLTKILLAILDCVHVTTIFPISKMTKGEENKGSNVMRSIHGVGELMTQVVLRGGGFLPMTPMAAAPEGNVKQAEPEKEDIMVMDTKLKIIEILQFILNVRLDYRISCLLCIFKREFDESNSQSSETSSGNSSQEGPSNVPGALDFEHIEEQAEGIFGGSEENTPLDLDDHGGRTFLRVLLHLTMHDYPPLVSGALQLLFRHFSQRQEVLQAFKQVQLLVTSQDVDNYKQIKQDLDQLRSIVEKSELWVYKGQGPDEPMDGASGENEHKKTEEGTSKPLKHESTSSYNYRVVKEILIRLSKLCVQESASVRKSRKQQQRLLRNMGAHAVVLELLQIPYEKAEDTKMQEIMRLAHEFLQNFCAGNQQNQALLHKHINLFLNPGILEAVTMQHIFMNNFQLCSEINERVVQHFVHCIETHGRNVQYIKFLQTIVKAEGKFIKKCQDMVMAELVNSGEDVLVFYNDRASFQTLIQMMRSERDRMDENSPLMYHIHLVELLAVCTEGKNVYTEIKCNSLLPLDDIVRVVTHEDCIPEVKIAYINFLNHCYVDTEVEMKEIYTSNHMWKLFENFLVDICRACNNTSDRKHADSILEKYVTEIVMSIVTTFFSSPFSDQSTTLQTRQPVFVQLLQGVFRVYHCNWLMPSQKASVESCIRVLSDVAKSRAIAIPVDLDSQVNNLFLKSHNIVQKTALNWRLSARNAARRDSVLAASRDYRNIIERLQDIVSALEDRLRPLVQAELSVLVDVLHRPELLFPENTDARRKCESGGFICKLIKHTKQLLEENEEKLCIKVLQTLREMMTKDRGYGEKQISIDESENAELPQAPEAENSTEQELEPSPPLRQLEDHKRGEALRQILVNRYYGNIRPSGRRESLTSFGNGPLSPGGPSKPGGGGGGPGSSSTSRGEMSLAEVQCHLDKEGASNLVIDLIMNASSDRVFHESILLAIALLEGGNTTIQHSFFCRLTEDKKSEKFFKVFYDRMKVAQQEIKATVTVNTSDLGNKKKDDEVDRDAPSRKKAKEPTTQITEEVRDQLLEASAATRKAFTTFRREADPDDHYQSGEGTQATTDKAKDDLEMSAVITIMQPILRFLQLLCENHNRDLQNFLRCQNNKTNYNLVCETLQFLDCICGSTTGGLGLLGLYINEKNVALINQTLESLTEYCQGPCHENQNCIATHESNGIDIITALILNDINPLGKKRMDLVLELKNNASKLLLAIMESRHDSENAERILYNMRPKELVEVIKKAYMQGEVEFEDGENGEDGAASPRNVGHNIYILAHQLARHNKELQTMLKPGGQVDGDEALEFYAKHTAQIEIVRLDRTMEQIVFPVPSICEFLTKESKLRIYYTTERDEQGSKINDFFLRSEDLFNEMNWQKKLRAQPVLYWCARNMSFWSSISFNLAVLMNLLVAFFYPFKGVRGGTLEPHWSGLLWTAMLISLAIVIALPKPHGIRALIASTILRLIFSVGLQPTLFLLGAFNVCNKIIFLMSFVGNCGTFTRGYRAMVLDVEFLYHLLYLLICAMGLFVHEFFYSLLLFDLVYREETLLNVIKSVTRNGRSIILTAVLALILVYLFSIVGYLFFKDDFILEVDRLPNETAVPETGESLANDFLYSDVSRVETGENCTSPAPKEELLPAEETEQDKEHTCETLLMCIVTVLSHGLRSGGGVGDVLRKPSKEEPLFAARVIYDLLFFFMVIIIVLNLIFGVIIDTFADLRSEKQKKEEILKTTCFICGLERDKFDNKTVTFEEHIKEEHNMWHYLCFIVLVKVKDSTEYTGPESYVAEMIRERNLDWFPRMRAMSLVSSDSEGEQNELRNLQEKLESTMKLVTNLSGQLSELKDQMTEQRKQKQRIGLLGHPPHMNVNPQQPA

Regarding “Inositol 1,4,5-trisphosphate-gated calcium channel ITPR1 (Mus musculus), P11881 C2496S”, the “effect of a mutation on the interaction” value is “decreasing interaction”.

Take “Inositol 1,4,5-trisphosphate-gated calcium channel ITPR1 (Mus musculus), P11881 C2504S”: the “effect of a mutation on the interaction” value is “decreasing interaction”.
